These results are taken from patent US20060141545A1.

Test [1] has as its target murine VCAM-1 (vascular endothelial adhesion molecule-1) (murine) (UniProt P29533). Description: cell-based or functional assay.
For test [2] the target is unchanged. In words: bEnd.3 cells, unstimulated against IL-1α-stimulated.
Test [3] shares this target. Description: IL-1α-activated bEnd.3 cells treated with anti-VCAM-1•tTF, bound coaguligand detected with 125I-labeled 10H10.

UniProt P29533, sequence (P29533 25-739): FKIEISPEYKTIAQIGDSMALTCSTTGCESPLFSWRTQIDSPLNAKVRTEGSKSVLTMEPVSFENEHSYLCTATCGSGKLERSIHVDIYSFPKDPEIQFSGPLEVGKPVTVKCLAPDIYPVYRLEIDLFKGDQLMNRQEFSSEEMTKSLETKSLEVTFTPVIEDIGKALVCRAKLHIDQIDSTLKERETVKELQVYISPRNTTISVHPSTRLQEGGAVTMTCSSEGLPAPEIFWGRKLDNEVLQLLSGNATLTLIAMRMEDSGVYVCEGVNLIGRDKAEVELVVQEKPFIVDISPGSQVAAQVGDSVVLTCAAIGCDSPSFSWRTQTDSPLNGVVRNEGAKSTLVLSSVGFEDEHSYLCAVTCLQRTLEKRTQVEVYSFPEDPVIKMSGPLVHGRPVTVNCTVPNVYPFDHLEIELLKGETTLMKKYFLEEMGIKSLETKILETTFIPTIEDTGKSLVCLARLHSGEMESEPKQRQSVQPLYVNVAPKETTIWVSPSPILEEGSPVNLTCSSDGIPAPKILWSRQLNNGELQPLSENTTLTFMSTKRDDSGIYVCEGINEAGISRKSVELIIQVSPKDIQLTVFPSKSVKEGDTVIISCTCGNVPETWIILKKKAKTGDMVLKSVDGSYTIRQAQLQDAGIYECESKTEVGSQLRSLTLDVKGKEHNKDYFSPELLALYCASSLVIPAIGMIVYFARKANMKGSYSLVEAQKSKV

As to “anti-VCAM-1•tTF coaguligand (MK2.7 anti-VCAM-1 IgG covalently linked through SMPT to truncated human tissue factor) (from UniProt P13726 33-251)”, in test [1], the Generation of factor Xa (chromogenic assay, S-2765), intact IL-1α-stimulated bEnd.3 cells (ng per 10^4 cells per 60 min) amounted to 3.17; the Generation of factor Xa (chromogenic assay, S-2765), intact unstimulated bEnd.3 cells (ng per 10^4 cells per 60 min) was found to be 1.64; the Generation of factor Xa (chromogenic assay, S-2765), saponin-permeabilized IL-1α-stimulated bEnd.3 cells (ng per 10^4 cells per 60 min) stood at 98.8; the Generation of factor Xa (chromogenic assay, S-2765), saponin-permeabilized unstimulated bEnd.3 cells (ng per 10^4 cells per 60 min) turned out to be 49.2. Also, in test [1] (scale: ng of factor Xa per 10,000 cells per 60 min), the factor Xa produced by permeabilized IL-1α-stimulated bEnd.3 cells preincubated with coaguligand, no Annexin V came out at 95. The substance also had an amount bound to unstimulated cells against stimulated cells in test [2] of 50 % lower. In test [3], this substance came in with an amount of anti-TF antibody bound at saturation of 8.7 fmol and a molecules of anti-TF antibody bound per cell at saturation (molecules per cell) of 540000.
